Assay results published in paper PMC9338922, “DltC acts as an interaction hub for AcpS, DltA and DltB in the teichoic acid D-alanylation pathway of Lactiplantibacillus plantarum” (Scientific Reports, 2022).
Changes are numbered by the printed parent chain. In names and notes the source's numbering stands. Each block holds one binder with its values, some of them ahead of it.

What was measured:
[1] = target: T1, DltA-∆P-loop mutant, C-terminal His6 tag (Lactiplantibacillus plantarum, UniProt Q88VM6 1-508, missing the loop region comprised between T152 and K160); assay: MST
T1 sequence: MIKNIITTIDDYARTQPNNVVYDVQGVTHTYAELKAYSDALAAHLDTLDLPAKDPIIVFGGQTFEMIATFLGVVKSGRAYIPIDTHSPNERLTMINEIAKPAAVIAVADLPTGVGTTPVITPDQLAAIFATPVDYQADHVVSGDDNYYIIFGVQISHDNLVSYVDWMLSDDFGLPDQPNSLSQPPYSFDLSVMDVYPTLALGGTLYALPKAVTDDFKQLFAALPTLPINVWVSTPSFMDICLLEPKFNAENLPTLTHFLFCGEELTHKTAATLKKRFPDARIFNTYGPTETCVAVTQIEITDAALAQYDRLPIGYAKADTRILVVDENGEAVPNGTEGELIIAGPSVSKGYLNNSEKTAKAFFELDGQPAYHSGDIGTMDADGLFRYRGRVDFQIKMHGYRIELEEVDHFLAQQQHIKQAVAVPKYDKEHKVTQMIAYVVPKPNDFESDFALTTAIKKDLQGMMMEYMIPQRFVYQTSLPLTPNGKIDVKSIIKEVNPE

[2] = target: T2, L. plantarum DltA, full-length wild type, C-terminal His6 tag (Lactiplantibacillus plantarum, UniProt Q88VM6 1-508); assay: MST; one protein labelled with NHS red fluorescent dye (RED-NHS Monolith NT kit); Hepes 25 mM pH 7.5, NaCl 300 mM, Tween20 0.05%; 22 °C; triplicate; details: both partners purified
T2 construct: DltA (D-alanine-D-alanyl carrier protein ligase) of Lactiplantibacillus plantarum, full-length wild type, 508 residues, cloned in pT7-7; the C-terminal domain is not visible; also called LpDltA; D-alanine-D-alanyl carrier protein ligase; source: E. coli BL21 (DE3), purified (Ni-NTA, SEC)
T2 sequence (looked up): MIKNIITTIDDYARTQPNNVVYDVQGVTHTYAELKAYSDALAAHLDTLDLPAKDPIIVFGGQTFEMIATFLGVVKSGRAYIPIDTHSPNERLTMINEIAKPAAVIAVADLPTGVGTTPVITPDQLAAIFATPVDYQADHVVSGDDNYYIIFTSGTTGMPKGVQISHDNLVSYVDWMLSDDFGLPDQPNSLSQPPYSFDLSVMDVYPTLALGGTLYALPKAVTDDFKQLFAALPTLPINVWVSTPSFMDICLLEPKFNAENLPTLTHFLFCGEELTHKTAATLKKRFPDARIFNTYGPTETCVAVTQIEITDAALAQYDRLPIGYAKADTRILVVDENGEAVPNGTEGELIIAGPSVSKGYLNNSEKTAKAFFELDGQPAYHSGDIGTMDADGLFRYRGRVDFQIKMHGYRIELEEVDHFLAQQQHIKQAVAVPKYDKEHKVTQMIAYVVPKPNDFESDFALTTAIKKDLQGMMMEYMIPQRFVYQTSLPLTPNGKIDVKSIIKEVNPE

[3] = target: T3, DltA-∆P-loop mutant, C-terminal His6 tag (Lactiplantibacillus plantarum, UniProt Q88VM6 1-508, missing the loop region comprised between T152 and K160); assay: as above; details: both partners purified
T3 construct: DltA of Lactiplantibacillus plantarum, full length but missing the P-loop region comprised between Thr152 and Lys160, cloned in pT7-7; source: E. coli BL21 (DE3), purified (Ni-NTA, SEC)
T3 sequence (looked up): T1 sequence

[4] = target: T4, L. plantarum AcpS, full-length wild type, C-terminal His6 tag (Lactiplantibacillus plantarum, UniProt Q88Z44 1-120); assay: SEC; purified AcpS mixed with apo- or holo-DltC1, mixture subjected to size exclusion chromatography; details: both partners purified
T4 construct: AcpS (acyl-carrier protein synthase) of Lactiplantibacillus plantarum, full-length wild type, cloned in pT7-7 (NdeI/PstI); AcpS is a trimer in the crystal structure of the complex (PDB 7R49); also called LpAcpS; acyl-carrier protein synthase; source: E. coli BL21 (DE3), purified (Ni-NTA, Superdex 200 SEC)
T4 sequence (looked up): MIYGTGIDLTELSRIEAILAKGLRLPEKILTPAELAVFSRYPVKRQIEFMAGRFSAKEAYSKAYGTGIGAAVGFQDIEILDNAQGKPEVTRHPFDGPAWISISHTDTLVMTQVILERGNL

[5] = target: L. plantarum DltC1, full-length wild type, C-terminal His6 tag (Lactiplantibacillus plantarum) (UniProt Q88VM8); assay: crystal structure; AcpS/DltC1 complex at 4.8 mg/ml, sitting-drop vapor diffusion at 293 K, 20% PEG3350 and 0.2 M sodium malonate; 1.88 Å
[6] = target: the molecule itself; assay: as above

Kd [1]: 0.18 µM
Kd [2]: 5.74 µM
binding result [3]: binds
B1: holo-DltC1 (DltC1 fully modified by phosphopantetheine), C-terminal His6 tag (natural protein, Lactiplantibacillus plantarum, UniProt Q88VM8 1-80, looked up)
chain: MTMDDTKATVLSILADLTGEDVSSNMDVNLFDEGILDSMGSVQLLLELQNQLGIEVPVSEFQRSEWDTPAKIVAKVENLQ
modifications: phosphopantetheine (Ppant) covalently attached to Ser38, confirmed by mass spectrometry
notes: DltC1 (nc8_1734) of Lactiplantibacillus plantarum, wild type, co-expressed with wild type AcpS from pRSF-Duet1; also called Ppant-DltC1; Ppant-modified DltC; source: E. coli BL21 (DE3), co-expressed with LpAcpS from pRSF-Duet1, purified (Ni-NTA, SEC); 15N-labelled in M9 minimal media for NMR

Kd [2]: 8.89 µM
binding result [3]: binds
binding result [4]: binds
B2: apo-DltC1-S38A, C-terminal His6 tag (natural protein, Lactiplantibacillus plantarum, UniProt Q88VM8 1-80, looked up)
chain: B1 chain with S38A
notes: DltC1 (nc8_1734) of Lactiplantibacillus plantarum, full length, catalytic Ser38 mutated to Ala, cloned in pET-28a(+); source: E. coli BL21 (DE3)-RIPL, purified (Ni-NTA, SEC); 15N- or 13C,15N-labelled in M9 minimal media for NMR

stoichiometry N (AcpS:DltC1 (3:3)) [5]: 1
B3: L. plantarum AcpS, full-length wild type, untagged (enzyme, Lactiplantibacillus plantarum, UniProt Q88Z44 1-120, looked up)
chain: T4 sequence (looked up)
notes: AcpS of Lactiplantibacillus plantarum, full-length wild type, pT7-7 with a stop codon before the TEV cleavage site and the His6 tag; also called untagged LpAcpS^WT; untagged AcpS; source: E. coli BL21 (DE3); lysate mixed with Ni-NTA-purified DltC1, complex purified (Ni-NTA, Superdex 200 SEC)
stoichiometry N [6]: 3
